In PMC8709174:

Biological target: Aplysia californica acetylcholine binding protein (Ac-AChBP) (Aplysia californica)
Experiment: crystal structure

Substance: α-conotoxin RgIA (peptide)
- stoichiometry N (RgIA per Ac-AChBP pentamer): 5
